# Publication PMC10613257, “Cryo-EM structure of human PAPP-A2 and mechanism of substrate recognition” (Communications Chemistry, 2023)
# B1: Pregnancy-Associated Plasma Protein A (PAPP-A), wild type (enzyme, UniProt Q13219 82-1627, looked up)
# chain: EARGATEEPSPPSRALYFSGRGEQLRLRADLELPRDAFTLQVWLRAEGGQRSPAVITGLYDKCSYISRDRGWVVGIHTISDQDNKDPRYFFSLKTDRARQVTTINAHRSYLPGQWVYLAATYDGQFMKLYVNGAQVATSGEQVGGIFSPLTQKCKVLMLGGSALNHNYRGYIEHFSLWKVARTQREILSDMETHGAHTALPQLLLQENWDNVKHAWSPMKDGSSPKVEFSNAHGFLLDTSLEPPLCGQTLCDNTEVIASYNQLSSFRQPKVVRYRVVNLYEDDHKNPTVTREQVDFQHHQLAEAFKQYNISWELDVLEVSNSSLRRRLILANCDISKIGDENCDPECNHTLTGHDGGDCRHLRHPAFVKKQHNGVCDMDCNYERFNFDGGECCDPEITNVTQTCFDPDSPHRAYLDVNELKNILKLDGSTHLNIFFAKSSEEELAGVATWPWDKEALMHLGGIVLNPSFYGMPGHTHTMIHEIGHSLGLYHVFRGISEIQSCSDPCMETEPSFETGDLCNDTNPAPKHKSCGDPGPGNDTCGFHSFFNTPYNNFMSYADDDCTDSFTPNQVARMHCYLDLVYQGWQPSRKPAPVALAPQVLGHTTDSVTLEWFPPIDGHFFERELGSACHLCLEGRILVQYASNASSPMPCSPSGHWSPREAEGHPDVEQPCKSSVRTWSPNSAVNPHTVPPACPEPQGCYLELEFLYPLVPESLTIWVTFVSTDWDSSGAVNDIKLLAVSGKNISLGPQNVFCDVPLTIRLWDVGEEVYGIQIYTLDEHLEIDAAMLTSTADTPLCLQCKPLKYKVVRDPPLQMDVASILHLNRKFVDMDLNLGSVYQYWVITISGTEESEPSPAVTYIHGSGYCGDGIIQKDQGEQCDDMNKINGDGCSLFCRQEVSFNCIDEPSRCYFHDGDGVCEEFEQKTSIKDCGVYTPQGFLDQWASNASVSHQDQQCPGWVIIGQPAASQVCRTKVIDLSEGISQHAWYPCTISYPYSQLAQTTFWLRAYFSQPMVAAAVIVHLVTDGTYYGDQKQETISVQLLDTKDQSHDLGLHVLSCRNNPLIIPVVHDLSQPFYHSQAVRVSFSSPLVAISGVALRSFDNFDPVTLSSCQRGETYSPAEQSCVHFACEKTDCPELAVENASLNCSSSDRYHGAQCTVSCRTGYVLQIRRDDELIKSQTGPSVTVTCTEGKWNKQVACEPVDCSIPDHHQVYAASFSCPEGTTFGSQCSFQCRHPAQLKGNNSLLTCMEDGLWSFPEALCELMCLAPPPVPNADLQTARCRENKHKVGSFCKYKCKPGYHVPGSSRKSKKRAFKTQCTQDGSWQEGACVPVTCDPPPPKFHGLYQCTNGFQFNSECRIKCEDSDASQGLGSNVIHCRKDGTWNGSFHVCQEMQGQCSVPNELNSNLKLQCPDGYAIGSECATSCLDHNSESIILPMNVTVRDIPHWLNPTRVERVVCTAGLKWYPHPALIHCVKGCEPFMGDNYCDAINNRAFCNYDGGDCCTSTVKTKKVTPFPMSCDLQGDCACRDPQAQEHSRKDLRGYSHG
# notes: PAPP-A, mature form of 1547 amino acids after processing of the pro-peptide. numbers count on: the mature protein; also called FL PAPP-A; dimeric PAPP-A; source: Expi293F, secreted into the culture medium, purified (anti-FLAG, Superose 6 SEC)
# Molecular target: the molecule itself
# Assay: SEC; Superose 6 Increase 10/300 in 1X PBS
protein,measurement,value
B1,stoichiometry N,2
